We go through twelve variants from IntAct's records for PubMed 23286197.

First the molecules themselves.
B1: MIF4G domain-containing protein (Homo sapiens), A9UHW6 (parent)
chain: MGEPSREEYKIQSFDAETQQLLKTALKDPGAVDLEKVANVIVDHSLQDCVFSKEAGRMCYAIIQAESKQAGQSVFRRGLLNRLQQEYQAREQLRARSLQGWVCYVTFICNIFDYLRVNNMPMMALVNPVYDCLFRLAQPDSLSKEEEVDCLVLQLHRVGEQLEKMNGQRMDELFVLIRDGFLLPTGLSSLAQLLLLEIIEFRAAGWKTTPAAHKYYYSEVSD

In the test the parent is B1. The note with it: with slbp_human SLBP.
In the case of E200A, the “effect of a mutation on the interaction” value is given as “increasing interaction”.
With K10A the entry was “with no effect”; with E7A, “with no effect”; with R202A, “disrupting interaction”.
Consider F75A, for which the “effect of a mutation on the interaction” value is recorded as “with no effect”.
On to R157A, for which the “effect of a mutation on the interaction” value is “with no effect”.
As to Y60A, the “effect of a mutation on the interaction” value is “with no effect”.
Regarding Q64A, the “effect of a mutation on the interaction” value is given as “with no effect”.
With R76A the entry was “with no effect”; with R57A, “with no effect”; with R82A, “with no effect”.
As for H44A, the “effect of a mutation on the interaction” value is reported as “with no effect”.
